Values of other authors in paper PMC8894380.

Target: PRPF8 Jab1 (Saccharomyces cerevisiae) (UniProt P33334)
Sequence (P33334 2148-2395): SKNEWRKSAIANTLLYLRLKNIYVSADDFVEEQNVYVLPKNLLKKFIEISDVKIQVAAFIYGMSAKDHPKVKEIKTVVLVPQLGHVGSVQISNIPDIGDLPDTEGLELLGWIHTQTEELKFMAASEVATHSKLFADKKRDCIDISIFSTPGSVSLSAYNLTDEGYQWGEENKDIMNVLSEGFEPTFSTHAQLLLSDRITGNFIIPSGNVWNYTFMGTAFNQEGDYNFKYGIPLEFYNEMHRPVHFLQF

Chain of BRR2 helicase region (P32639 442-2163): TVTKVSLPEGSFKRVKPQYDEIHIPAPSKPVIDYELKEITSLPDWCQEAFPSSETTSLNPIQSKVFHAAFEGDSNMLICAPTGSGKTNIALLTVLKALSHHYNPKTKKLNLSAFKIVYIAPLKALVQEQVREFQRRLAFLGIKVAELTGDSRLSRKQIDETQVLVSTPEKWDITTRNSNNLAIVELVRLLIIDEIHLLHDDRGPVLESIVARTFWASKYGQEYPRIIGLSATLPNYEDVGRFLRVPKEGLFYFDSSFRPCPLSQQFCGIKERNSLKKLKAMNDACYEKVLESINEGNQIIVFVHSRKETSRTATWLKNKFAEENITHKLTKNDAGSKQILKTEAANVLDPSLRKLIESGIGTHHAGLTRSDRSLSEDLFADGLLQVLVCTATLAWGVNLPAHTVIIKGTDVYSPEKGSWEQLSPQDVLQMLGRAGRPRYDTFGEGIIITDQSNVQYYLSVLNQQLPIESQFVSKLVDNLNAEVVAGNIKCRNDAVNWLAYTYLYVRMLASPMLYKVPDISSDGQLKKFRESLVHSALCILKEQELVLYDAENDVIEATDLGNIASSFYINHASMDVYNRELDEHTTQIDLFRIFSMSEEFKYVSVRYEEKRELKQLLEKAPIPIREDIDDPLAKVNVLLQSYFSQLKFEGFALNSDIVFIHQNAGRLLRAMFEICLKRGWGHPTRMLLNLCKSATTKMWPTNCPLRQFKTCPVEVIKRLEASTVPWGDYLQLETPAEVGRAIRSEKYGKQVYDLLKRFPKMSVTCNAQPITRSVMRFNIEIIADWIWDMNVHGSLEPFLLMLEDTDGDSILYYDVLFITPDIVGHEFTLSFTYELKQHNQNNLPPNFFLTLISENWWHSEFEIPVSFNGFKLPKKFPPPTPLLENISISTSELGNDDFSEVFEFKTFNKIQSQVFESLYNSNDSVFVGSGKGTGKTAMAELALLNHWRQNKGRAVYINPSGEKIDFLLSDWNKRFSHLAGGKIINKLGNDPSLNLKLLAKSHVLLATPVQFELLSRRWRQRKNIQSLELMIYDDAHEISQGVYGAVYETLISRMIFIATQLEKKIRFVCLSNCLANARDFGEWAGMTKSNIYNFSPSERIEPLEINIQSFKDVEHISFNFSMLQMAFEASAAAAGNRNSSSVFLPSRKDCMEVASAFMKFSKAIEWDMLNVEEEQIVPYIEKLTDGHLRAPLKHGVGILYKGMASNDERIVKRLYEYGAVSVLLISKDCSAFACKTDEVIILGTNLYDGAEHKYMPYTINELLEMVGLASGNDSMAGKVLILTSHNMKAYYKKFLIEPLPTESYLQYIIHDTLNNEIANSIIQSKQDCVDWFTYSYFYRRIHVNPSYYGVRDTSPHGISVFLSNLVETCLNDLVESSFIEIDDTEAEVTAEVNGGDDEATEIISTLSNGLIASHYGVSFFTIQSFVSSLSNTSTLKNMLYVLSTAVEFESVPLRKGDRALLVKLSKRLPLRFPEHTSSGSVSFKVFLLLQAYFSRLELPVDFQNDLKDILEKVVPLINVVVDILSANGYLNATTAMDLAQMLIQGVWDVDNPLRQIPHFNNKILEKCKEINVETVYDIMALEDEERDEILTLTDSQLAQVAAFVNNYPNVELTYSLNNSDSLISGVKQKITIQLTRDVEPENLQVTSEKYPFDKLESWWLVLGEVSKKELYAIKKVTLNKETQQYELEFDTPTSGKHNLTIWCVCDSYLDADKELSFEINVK

Kd: 8 nM
Substance: BRR2 helicase region (from UniProt P32639)
